In PMC9643335:

Target: Trypanosoma brucei ADAT3 (Trypanosoma brucei)
Experiment: cryo-EM structure; TbADAT2/3 heterodimer co-expressed in Hi5 cells, purified via the His tag on TbADAT3 (1 M KCl wash), tag cleaved, SEC; mixed with in vitro transcribed TbtRNA-Thr(CGU) in 20 mM Hepes pH 7.5, 50 mM NaCl, 2 mM MgCl2, 0.5 mM TCEP, SEC, vitrified

“Trypanosoma brucei ADAT2 (A87G/C117S) (enzyme)” was tested, and the stoichiometry N was 1.
